Laboratory results published in US20240084031A1 (Seagen, published 2024).

Key:
[1] = molecular target: T1, human CD70 on CD70 positive cell lines (human, UniProt P32970 1-193); test: 786-O cell binding, apparent KD of the IgG
T1 construct: whole, on cells
T1 sequence (looked up): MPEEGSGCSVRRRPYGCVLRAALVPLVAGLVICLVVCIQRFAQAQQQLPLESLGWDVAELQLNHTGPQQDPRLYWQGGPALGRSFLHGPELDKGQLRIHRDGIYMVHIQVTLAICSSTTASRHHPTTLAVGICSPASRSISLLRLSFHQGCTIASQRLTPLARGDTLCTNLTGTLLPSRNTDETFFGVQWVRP

[2] = molecular target: T2, mouse CD70 (the corresponding antigen from mice) (mouse, UniProt O55237 45-195, limits assumed); test: not described (statement in the example on maximum tolerated dose)
T2 construct: Named only as 'the corresponding antigen from mice'
T2 sequence (looked up): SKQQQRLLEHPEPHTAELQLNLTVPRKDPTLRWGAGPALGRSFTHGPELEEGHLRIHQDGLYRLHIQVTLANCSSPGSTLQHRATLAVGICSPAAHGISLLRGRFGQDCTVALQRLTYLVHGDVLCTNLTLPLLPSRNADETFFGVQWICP

[3] = molecular target: T1, human CD70 on CD70 positive cell lines; test: saturation binding of europium-labelled antibody to CD70+ ACHN cells (apparent KD)
Description: (§1) Humanized 1F6 antibody derivatives HDLA (hVHD and hVLA), HHLA (hVHH and hVLA), and HJLA (hVHJ and hVLA), and c1F6 were transiently expressed in 293 cells, labeled with europium using the Eu-N1 iodoacetamido chelate (Perkin Elmer), and analyzed for saturation binding to a panel of CD70 positive cell lines as described in detail in U.S. Patent Application No. 60/673,070, filed Apr. 19, 2005; and PCT International Publication No. WO 2006/113909.

[4] = molecular target: T1, human CD70 on CD70 positive cell lines; test: saturation binding of europium-labelled antibody to CD70+ 786-O cells (apparent KD)
Description: as §1

[5] = molecular target: T1, human CD70 on CD70 positive cell lines; test: saturation binding of europium-labelled antibody to CD70+ Caki-1 cells (apparent KD)
Description: as §1

[6] = molecular target: T1, human CD70 on CD70 positive cell lines; test: saturation binding of europium-labelled antibody to CD70+ Caki-2 cells (apparent KD)
Description: as §1

[7] = molecular target: T3, human FcγRI, full length on stably transfected CHO cells (human, UniProt P12314 16-374); test: cell-based competition binding on CHO cells expressing full-length FcγRI, 'performed as described previously' (50 nM Alexa Fluor 488-labelled h1F6 IgG1)
T3 construct: whole, on cells; also called CD64; Fcγ receptor I
Description: Binding of humanized anti-CD70 (h1F6) antibody to CHO cells expressing full-length FcγRI was determined by competition binding. […] Labeled cells were detected using an LSRII FACS analyzer.
(§2) Binding of one of the variants, IgG1 S239C, to CHO cells expressing full-length FcγRIIIa and FcγRI was determined as described above. […] The control, parent antibody h1F6, binds to FcγRIIIa-expressing cells and FcγRI-expressing cells.

[8] = molecular target: T4, human FcγRIIIa, 158V (high affinity), full length on stably transfected CHO cells (human, UniProt P08637 17-254); test: cell-based competition binding on CHO cells expressing full-length FcγRIIIa, 'performed as described previously' (158V line, 100 nM Alexa Fluor 488-labelled h1F6 IgG1); the sheet says only FcγRIIIA
T4 construct: whole, on cells; CHO DG44 line '158V'; also called CD16
Description: Binding of variant humanized anti-CD70 (h1F6) antibodies to CHO cells expressing full-length FcγRIIIa was also determined by competition binding. […] Labeled cells were detected using an LSRII FACS analyzer.
as §2

T4 sequence (P08637 17-254 F176V): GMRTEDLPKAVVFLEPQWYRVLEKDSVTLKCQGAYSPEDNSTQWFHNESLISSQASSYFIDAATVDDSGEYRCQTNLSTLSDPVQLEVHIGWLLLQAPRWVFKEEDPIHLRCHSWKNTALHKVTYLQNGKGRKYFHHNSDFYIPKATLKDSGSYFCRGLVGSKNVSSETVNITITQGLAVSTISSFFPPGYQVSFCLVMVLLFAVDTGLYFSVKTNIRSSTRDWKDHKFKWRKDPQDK
T3 sequence (P12314 16-374): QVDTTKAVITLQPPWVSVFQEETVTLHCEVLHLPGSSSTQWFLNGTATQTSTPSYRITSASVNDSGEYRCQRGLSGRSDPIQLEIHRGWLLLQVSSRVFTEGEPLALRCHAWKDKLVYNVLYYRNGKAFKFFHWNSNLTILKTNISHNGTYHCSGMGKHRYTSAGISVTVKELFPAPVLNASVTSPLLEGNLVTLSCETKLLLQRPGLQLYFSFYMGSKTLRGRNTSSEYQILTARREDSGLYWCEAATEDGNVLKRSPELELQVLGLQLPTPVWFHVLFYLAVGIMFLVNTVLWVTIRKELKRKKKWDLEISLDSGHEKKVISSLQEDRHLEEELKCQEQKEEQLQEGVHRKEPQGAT

B1: humanized 1F6 antibody derivative HJLA (hVHJ and hVLA), human IgG1 (antibody)
heavy: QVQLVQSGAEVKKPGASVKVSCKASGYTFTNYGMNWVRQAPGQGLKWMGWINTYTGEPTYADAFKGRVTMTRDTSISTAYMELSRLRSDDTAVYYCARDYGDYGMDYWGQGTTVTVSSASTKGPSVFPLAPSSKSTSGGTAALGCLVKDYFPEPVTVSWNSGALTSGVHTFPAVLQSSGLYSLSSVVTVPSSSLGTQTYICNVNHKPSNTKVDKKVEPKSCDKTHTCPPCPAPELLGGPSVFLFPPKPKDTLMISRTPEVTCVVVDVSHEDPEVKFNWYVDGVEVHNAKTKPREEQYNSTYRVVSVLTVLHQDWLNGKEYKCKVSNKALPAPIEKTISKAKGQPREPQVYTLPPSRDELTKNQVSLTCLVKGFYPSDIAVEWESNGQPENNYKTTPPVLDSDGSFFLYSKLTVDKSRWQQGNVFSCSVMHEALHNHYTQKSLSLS
light: DIVMTQSPDSLAVSLGERATINCRASKSVSTSGYSFMHWYQQKPGQPPKLLIYLASNLESGVPDRFSGSGSGTDFTLTISSLQAEDVAVYYCQHSREVPWTFGQGTKVEIKRTVAAPSVFIFPPSDEQLKSGTASVVCLLNNFYPREAKVQWKVDNALQSGNSQESVTEQDSKDSTYSLSSTLTLSKADYEKHKVYACEVTHQGLSSPVTKSFNRGEC
notes: also called h1F6 HJLA; h1F6 IgG1
Kd [1]: 0.6 nM
binding result [2]: no binding
Kd [3]: 0.68 nM
Kd [4]: 0.46 nM
Kd [5]: 1.36 nM
Kd [6]: 0.37 nM
IC50 (read off the curve) [7]: ~6 nM
IC50 (read off the curve) [8]: ~200 nM
